Consider four molecules from article PMC5768706, “Structural basis for chitin acquisition by marine Vibrio species” (Nature Communications, 2018).

Assay [1] has as its target T1, VhChiP (OM-expressed, native) (Vibrio harveyi, UniProt L0RVU0).
T1 construct: gene chiP; full-length mature protein after signal peptide processing, no His-tag, pET23d(+), expressed in outer membrane of E. coli BL21(DE3) omp8 rosetta, homotrimer
T1 sequence (L0RVU0 26-375): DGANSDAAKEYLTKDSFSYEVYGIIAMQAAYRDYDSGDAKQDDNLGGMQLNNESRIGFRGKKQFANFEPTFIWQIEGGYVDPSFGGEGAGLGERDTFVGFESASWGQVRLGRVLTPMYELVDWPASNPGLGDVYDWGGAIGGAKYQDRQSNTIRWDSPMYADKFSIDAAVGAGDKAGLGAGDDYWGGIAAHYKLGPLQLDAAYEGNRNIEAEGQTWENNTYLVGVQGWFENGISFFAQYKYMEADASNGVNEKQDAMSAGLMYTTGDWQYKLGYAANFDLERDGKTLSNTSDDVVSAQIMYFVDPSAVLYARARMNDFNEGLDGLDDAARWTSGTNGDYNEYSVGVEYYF
Nature of the assay: single-channel electrophysiology, planar lipid bilayer, ion current block titration. Type of assay: binding. The note with it: 1 M KCl, 20 mM HEPES pH 7.5, 25 °C, -100 mV, sugar on cis side; range printed jointly for both full-length channels.

Assay [2] concerns the target T1, VhChiP (OM-expressed, native). The experiment in a line: X-ray crystal structure of co-crystals. The following applies: 10 mM GlcNAc4, 0.1 M MES pH 6.5, 28% PEG 400. The assay is classed as binding.
In assay [3] the target is OM-expressed VhChiP (chitoporin from Vibrio harveyi) (Vibrio harveyi). The experiment in a line: crystal structure; OM-expressed VhChiP, 10 mg/mL, 0.4% C8E4; space group C2: 28% PEG 400, 0.2 M sodium acetate, 0.1 M MES pH 6.5.
For assay [4] the target is unchanged. The experiment in a line: SDS-PAGE of non-boiled and boiled samples; purified protein loaded non-boiled and boiled; heat-modifiable mobility.
Assay [5] has as its target in vitro-folded VhChiP (Vibrio harveyi). The experiment in a line: crystal structure; in vitro-folded SeMet VhChiP, ~12 mg/mL, 0.4% C8E4; crystal form I P2_(1): 30% PEG 400, 0.05 M NaCl, 0.1 M sodium citrate pH 5.5; crystal form II: 28% PEG 400, 0.5 M potassium iodide, 0.1 M Tris pH 8.5.
For assay [6] the target is unchanged. Nature of the assay: SDS-PAGE of non-boiled and boiled samples; purified protein loaded non-boiled and boiled; heat-modifiable mobility.

Consider `CC(=O)N[C@H]1[C@H](O[C@H]2[C@H](O)[C@@H](NC(C)=O)[C@H](O[C@H]3[C@H](O)[C@@H](NC(C)=O)C(O)O[C@@H]3CO)O[C@@H]2CO)O[C@H](CO)[C@@H](O[C@@H]2O[C@H](CO)[C@@H](O[C@@H]3O[C@H](CO)[C@@H](O[C@@H]4O[C@H](CO)[C@@H](O)[C@H](O)[C@H]4NC(C)=O)[C@H](O)[C@H]3NC(C)=O)[C@H](O)[C@H]2NC(C)=O)[C@@H]1O` (stereo partly drawn) [chitohexaose], for which the K in assay [1] is 2–5 × 10^5.

On to `CC(=O)N[C@H]1[C@H](O[C@H]2[C@H](O)[C@@H](NC(C)=O)C(O)O[C@@H]2CO)O[C@H](CO)[C@@H](O[C@@H]2O[C@H](CO)[C@@H](O[C@@H]3O[C@H](CO)[C@@H](O)[C@H](O)[C@H]3NC(C)=O)[C@H](O)[C@H]2NC(C)=O)[C@@H]1O` (stereo partly drawn) [chitotetraose], for which, in assay [2], the “X-ray crystal structure of co-crystals” value is recorded as “we co-crystallized OM-expressed VhChiP with chitotetraose (GlcNAc4)”.

For orientation: stoichiometry N means the number of molecules, sites or subunits per partner or assembly. As for “OM-expressed VhChiP (chitoporin from Vibrio harveyi) (natural protein)”, the stoichiometry N in assay [3] and in assay [4] was 3 in each case.

Consider “in vitro-folded VhChiP (natural protein)”, for which the stoichiometry N in assay [5] and in assay [6] was 3 throughout.
